In patent US6051217, “Therapeutic uses of interleukin-3 (IL-3) multiple mutation polypeptides” (G. D. Searle & Co., dated 2000):

T1: hIL-3 receptor (human, UniProt P26951)
T1 sequence: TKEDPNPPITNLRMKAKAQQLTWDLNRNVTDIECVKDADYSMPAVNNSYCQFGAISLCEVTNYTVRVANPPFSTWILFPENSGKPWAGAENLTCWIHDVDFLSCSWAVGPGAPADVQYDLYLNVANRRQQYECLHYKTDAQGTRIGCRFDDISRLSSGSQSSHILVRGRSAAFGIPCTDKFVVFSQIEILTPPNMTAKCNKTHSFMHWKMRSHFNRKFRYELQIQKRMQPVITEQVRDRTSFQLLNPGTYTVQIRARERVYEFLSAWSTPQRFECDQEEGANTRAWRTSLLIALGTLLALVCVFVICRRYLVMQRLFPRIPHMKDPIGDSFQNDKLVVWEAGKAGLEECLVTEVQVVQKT

B1: pMON13384 polypeptide (ligand)
chain: MANCSIMIDEIIHHLKRPPAPLLDPNNLNAEDVDILMERNLRLPNLESFVRAVKNLENASGIEAILRNLQPCLPSATAAPSRHPIIIKAGDWQEFREKLQFYLVTLEQAQEQQ
B2: pMON13396 polypeptide (ligand)
chain: MANCSIMIDEIIHHLKRPPAPLLDPNNLNAEDVDILMERNLRLPNLESFVRAVKNLENASGIEAILRNLQPCLPSATAAPSRHPIIIRMGDWQEFREKLTFYLVTLEQAQEQQ
B3: pMON13385 polypeptide (ligand)
chain: MANCSIMIDEIIHHLKVPPRPSLDPNNLNAEDVDILMERNLRLPNLESFVRAVKNLENASGIEAILRNLQPCLPSATAAPSRHPIIIKAGDWQEFREKLTFYLVTLEQAQEQQ
B4: pMON13420 polypeptide (ligand)
chain: MANCSIMIDEAIHHLKRPPAPSLDPNNLNDEDVSILMDRNLRLSNLESFVRAVKNLENASGIEAILRNLQPCLPSATAAPSRHPIIIKAGDWQEFREKLTFYLVTLEQAQEQQ
B5: pMON13413 polypeptide (ligand)
chain: MANCSIMIDEIIHHLKRPPNPLLDPNNLNSEDMDILMERNLRTPNLLAFVRAVKHLENASGIEAILRNLQPCLPSATAAPSRHPIIIKAGDWQEFRLKLQFYLSSLEQAQEQQ
B6: pMON13432 polypeptide (ligand)
chain: MANCSIMIDEAIHHLKRPPAPSLDPNNLNDEDMSILMDRNLRLPNLESFVRAVKNLENASGIEAILRNLQPCLPSATAAPSRHPIIIKAGDWQEFREKLTFYLVTLEQAQEQQ
B7: pMON13391 polypeptide (ligand)
chain: MANCSIMIDEIIHHLKRPPAPSLDPNNLNAEDVDILMERNLRLPNLESFVRAVKNLENASGIEAILRNLQPCLPSATAAPSRHPIIIKAGDWQEFREKLTFYLVTLEQAQEQQ
B8: pMON13393 polypeptide (ligand)
chain: MANCSIMIDEAIHHLKRPPAPSLDPNNLNDEDMSILMERNLRLPNLESFVRAVKNLENASGIEAILRNLQPCLPSATAAPSRHPIIIKAGDWQEFREKLTFYLVTLEQAQEQQ
B9: pMON13406 polypeptide (ligand)
chain: MANCSIAIDEIIHHLKRPPNPLLDPNNLNSEDMDILMERNLRTPNLLAFVRAVKHLENASGIEAILRNLQPCLPSATAAPSRHPIIIKAGDWQEFREKLTFYLVTLEQAQEQQ
B10: pMON13410 polypeptide (ligand)
chain: MANCSIMIDEIIHHLKRPPNPLLDPNNLNSEDMDILDERNLRTPNLLAFVRAVKHLENASGIEAILRNLQPCLPSATAAPSRHPIIIKAGDWQEFREKLTFYLVTLEQAQEQQ
B11: pMON13407 polypeptide (ligand)
chain: MANCSIMIDEIIHHLKRPPNPLLDPNNLNSEDVDILMERNLRTPNLLAFVRAVKHLENASGIEAILRNLQPCLPSATAAPSRHPIIIKAGDWQEFREKLTFYLVTLEQAQEQQ
B12: pMON13411 polypeptide (ligand)
chain: MANCSIMIDEIIHHLKRPPNPLLDPNNLNSEDMDILMERNLRTPNLLAFVRAVKHLENASGIEAILRNLQPCLPSATAAPSRHPIIIKAGDWQEFRLKLQFYLSTLEQAQEQQ
B13: pMON13392 polypeptide (ligand)
chain: MANCSIMIDEIIHHLKRPPAPLLDPNNLNDEDVDILMERNLRLPNLESFVRAVKNLENASGIEAILRNLQPCLPSATAAPSRHPIIIKAGDWQEFREKLTFYLVTLEQAQEQQ
B14: pMON13408 polypeptide (ligand)
chain: MANCSIMIDEIIHHLKRPPNPLLDPNNLNSEDMDILIERNLRTPNLLAFVRAVKHLENASGIEAILRNLQPCLPSATAAPSRHPIIIKAGDWQEFREKLTFYLVTLEQAQEQQ
B15: pMON13421 polypeptide (ligand)
chain: MANCSIMIDEAIHHLKRPPAPSLDPNNLNDEDMSILMDRNLRLSNLESFVRAVKNLENASGIEAILRNLQPCLPSATAAPSRHPIIIKAGDWQEFREKLTFYLVTLEQAQEQQ
B16: pMON13414 polypeptide (ligand)
chain: MANCSIIIDEIIHHLKRPPNPLLDPNNLNSEDMDILMERNLRTPNLLAFVRAVKHLENASGIEAILRNLQPCLPSATAAPSRHPIIIKAGDWQEFREKLTFYLVTLEQAQEQQ
B17: pMON13397 polypeptide (ligand)
chain: MANCSIMIDEIIHHLKRPPAPLLDPNNLNAEDVDILMERNLRLPNLESFVRAVKNLENASGIEAILRNLWPCLPSATAAPSRHPIIIRMGDWQEFREKLTFYLVTLEQAQEQQ
B18: pMON13387 polypeptide (ligand)
chain: MANCSIMIDEIIHHLKRPPAPLLDPNNLNAEDVDILMDRNLRLPNLESFVRAVKNLENASGIEAILRNLQPCLPSATAAPSRHPIIIKAGDWQEFREKLTFYLVTLEQAQEQQ
B19: pMON13389 polypeptide (ligand)
chain: MANCSIMIDEIIHHLKRPPAPLLDPNNLNDEDMDILMERNLRLPNLESFVRAVKNLENASGIEAILRNLQPCLPSATAAPSRHPIIIKAGDWQEFREKLTFYLVTLEQAQEQQ
B20: pMON13409 polypeptide (ligand)
chain: MANCSIMIDEIIHHLKRPPNPLLDPNNLNSEDMDILLERNLRTPNLLAFVRAVKHLENASGIEAILRNLQPCLPSATAAPSRHPIIIKAGDWQEFREKLTFYLVTLEQAQEQQ
B21: pMON13405 polypeptide (ligand)
chain: MANCSIAIDEIIHHLKRPPNPLLDPNNLNSEDVDILMERNLRTPNLLAFVRAVKHLENASGIEAILRNLQPCLPSATAAPSRHPIIIKAGDWQEFREKLTFYLVTLEQAQEQQ
B22: pMON13388 polypeptide (ligand)
chain: MANCSIMIDEIIHHLKRPPAPLLDPNNLNAEDVDILMDRNLRLSNLESFVRAVKNLENASGIEAILRNLQPCLPSATAAPSRHPIIIKAGDWQEFREKLTFYLVTLEQAQEQQ
B23: pMON13415 polypeptide (ligand)
chain: MANCSIIIDEIIHHLKRPPNPLLDPNNLNSEDVDILMERNLRTPNLLAFVRAVKHLENASGIEAILRNLQPCLPSATAAPSRHPIIIKAGDWQEFREKLTFYLVTLEQAQEQQ
B24: pMON13400 polypeptide (ligand)
chain: MANCSIMPDEAIHHLKIPPNPSLDSANLNSEDVSILMERNLRTPNLLAFVRAVKHLENASGIEAILRNLQPCLPSATAAPSRHPIIIKAGDWQEFREKLTFYLVTLEQAQEQQ
B25: pMON13402 polypeptide (ligand)
chain: MANCSIMIDELIHHLKIPPNPSLDSANLNSEDVSILMERNLRTPNLLAFVRAVKHLENASGIEAILRNLQPCLPSATAAPSRHPIIIKAGDWQEFREKLTFYLVTLEQAQEQQ
B26: pMON13418 polypeptide (ligand)
chain: MANCSIMIDEIIHHLKRPPNPLLDPNNLNSEDMDILMERNLRTPNLLAFVRAVKHLENASGIEPILSNLQPCVPYWTAPPSRTPITIKAGDWQEFREKLTFYLVTLEQAQEQQ
B27: pMON13412 polypeptide (ligand)
chain: MANCSIMIDEIIHHLKRPPNPLLDPNNLNSEDMDILMERNLRTPNLLAFVRAVKHLENASGIEAILRNLQPCLPSATAAPSRHPIIIKAGDWQEFRLKLQFYLSTL
B28: pMON13404 polypeptide (ligand)
chain: MANCSIMIDEIIHHLKRPPAPLLDPNNLNAEDVDILMERNLRLPNLESFVRAVKNLENASGIEAILRNLQPCLPSATAAPSRHPIIIKAGDWQEFREKLQFYLVTLE
B29: pMON13403 polypeptide (ligand)
chain: MANCSIMIDEIIHHLKRPPNPLLDPNNLNSEDMDILMDSNLRTPNLLAFPHASKQLENASGIEAILRNLQPCLPSATAAPSRHPIIIKAGDWQEFREKLTFYLVTLEQAQEQQ
B30: pMON13419 polypeptide (ligand)
chain: MANCSIMIDEIIHHLKRPPNPLLDPNNLNSEDMDILMDSNLLTPNLLAFPHASKQLENASGIEAILRNLQPCLPSATAAPSRHPIIIKAGDWQEFRLKLQFYLSSLEQAQEQQ

Molecular target: T1, hIL-3 receptor
Assay: cell-based or functional assay

Binder | Relative Biological Activity (AML 193 proliferation)
B1 | 0.25 EC50 (1-133)hIL-3 / EC50 mutant
B2 | 20 EC50 (1-133)hIL-3 / EC50 mutant
B3 | 1 EC50 (1-133)hIL-3 / EC50 mutant
B4 | 19 EC50 (1-133)hIL-3 / EC50 mutant
B5 | 0.6 EC50 (1-133)hIL-3 / EC50 mutant
B6 | 10 EC50 (1-133)hIL-3 / EC50 mutant
B7 | 30 EC50 (1-133)hIL-3 / EC50 mutant
B8 | 32 EC50 (1-133)hIL-3 / EC50 mutant
B9 | 5 EC50 (1-133)hIL-3 / EC50 mutant
B10 | 0.4 EC50 (1-133)hIL-3 / EC50 mutant
B11 | 16 EC50 (1-133)hIL-3 / EC50 mutant
B12 | 1.2 EC50 (1-133)hIL-3 / EC50 mutant
B13 | 17 EC50 (1-133)hIL-3 / EC50 mutant
B14 | 7 EC50 (1-133)hIL-3 / EC50 mutant
B15 | 0.5 EC50 (1-133)hIL-3 / EC50 mutant
B16 | 4 EC50 (1-133)hIL-3 / EC50 mutant
B17 | 16 EC50 (1-133)hIL-3 / EC50 mutant
B18 | 32 EC50 (1-133)hIL-3 / EC50 mutant
B19 | 10 EC50 (1-133)hIL-3 / EC50 mutant
B20 | 15 EC50 (1-133)hIL-3 / EC50 mutant
B21 | 9 EC50 (1-133)hIL-3 / EC50 mutant
B22 | 23 EC50 (1-133)hIL-3 / EC50 mutant
B23 | 4 EC50 (1-133)hIL-3 / EC50 mutant
B24 | 0.09 EC50 (1-133)hIL-3 / EC50 mutant
B25 | 20 EC50 (1-133)hIL-3 / EC50 mutant
B26 | 0.5 EC50 (1-133)hIL-3 / EC50 mutant
B27 | 0.5 EC50 (1-133)hIL-3 / EC50 mutant
B28 | 1.3 EC50 (1-133)hIL-3 / EC50 mutant
B29 | 0.03 EC50 (1-133)hIL-3 / EC50 mutant
B30 | 0.015 EC50 (1-133)hIL-3 / EC50 mutant
